The data set concerns the molecule itself. Description: dynamic light scattering; 20 µl of freshly purified protein (8 mg/ml) at 20 °C, DynaPro NanoStar; self-association (oligomeric state).

B1: Tde1415 (Tde-PntC; two-domain protein with an N-terminal PntC and a C-terminal AEPT domain) from Treponema denticola (enzyme, Treponema denticola ATCC 35405)
chain: MIKQAVILAGGLGSRLKDKTKTMPKGFLEIGGTAIVEQSVQKLLAHGIEKIVIGTGHCNEYYDNLAKKYPAIITVKNENYANTGSMGTLEVCASFVNESFLLLESDLIYDSAGLFSLINDERKNLILASGATKSGDEVYLEADEKNCLTGLSKNRDALKNIFGELVGITKLTKSTLDKMCAYAKIHHSDLPKMEYEHALLEAAKTIPVAIKRIEYFVWREIDNEDHLEMAVKNIYPHIVENEKLRAVRREVLLNPGPATTTDSVKYAQVSADICPREKAFGDLMQWLCDELKLFALASETNPDEYETVMFGCSGTGADEVMVSSCVPDTGRLLVIDNGSYGARMAKIADIYKIPMDIFKSSTYEPLDLQKLEAEFATKKYTHLACVYHETTTGLLNPLHIICPMAKKYGMVTIVDAVSAYCGMPMDLKSLGIDFMASTSNKNIQGMAGVGFVICNKAELEKTKDYPMRNYYLNLYDQYAYFAKTHQTRFTPPVQTMYALRQAVLETKQETVQKRYERYTACWNILVAAIKKLGLKMLVKEEHQSHFITAILEPETPKYSFEALHDFAAEHSFTIYPGKLGNIDTFRIANIGDIQPEEMRRFTVKLKEYMNGIGVGV
notes: Tde1415 (Tde-PntC) from T. denticola ATCC 35405, NCBI NP_992021; N-terminal PntC cytidylyltransferase domain joined to a C-terminal AEP transaminase (AEPT) domain; predicted monomeric molecular weight ~70 kDa; gene subcloned without its stop codon as NdeI/NotI fragment into pET21b (pGH3000); Dimer by DLS; source: E. coli BL21(DE3), purified (Ni-NTA, HiTrap Q FF anion exchange)
With B1, the stoichiometry N – broadly, a count of units in the complex or per binding partner – came out at 2.

Source of the values: paper PMC6697681, “The predominance of nucleotidyl activation in bacterial phosphonate biosynthesis” (Nature Communications, 2019).
